Laboratory results taken from patent US20120021993A1 (AJOU UNIVERSITY INDUSTRY ACADEMIC COOPERATION FOUNDATION, published 2012).
Where two headings read alike, the source gives them in different places.

Key:
[1] = molecular target: T1, TNFα, extracellular domain (amino acid residue 1-157), 6xHis tag (human, UniProt P01375 57-233); assay: ELISA, homo-dimer against monomer
T1 construct: extracellular domain; Expressed in E. coli; The printed residues 1-157 seem to count on the soluble form, not on the precursor; the same molecule is used for it here; also called human TNFα; tumor necrosis factor alpha

[2] = molecular target: T1, TNFα, extracellular domain (amino acid …); assay: ELISA, target coated on the plate
cell surface DR5 = cell surface DR5 (human, UniProt O14763 56-440); assay: cell-based or functional assay
[3] = molecular target: T2, human-derived cell death receptor 5, extracellular domain (amino acid residues 1-130), 6xHis tag (human, UniProt O14763 56-210); assay: ELISA, coated DR5, A405
T2 construct: extracellular domain; Expressed in E. coli; biotinylated for sorting and flow cytometry; also called DR5; TRAIL-receptor 2

[4] = molecular target: T2, human-derived cell death receptor 5, …; assay: ELISA, coated target, A405
[5] = molecular target: T2, human-derived cell death receptor 5, …; assay: ELISA on coated DR5, KD506 alone, A405
[6] = molecular target: T2, human-derived cell death receptor 5, …; assay: ELISA, coated target, A405 [upper panel]
Experimental: (§1) In order to measure the affinity and cross reactivity of the anti-DR4, -DR5 and -TNFα protein scaffold variants based on the Kringle domain structure to the target molecules, an enzyme-linked immunosorbent assay (ELISA) was performed. The target molecules DR4, DR5, TNFα and DcR1, DcR2 were attached to a 96 well EIA/RIA plate (COSTARCorning In., USA) by its reaction at 37° C. for 1 hour, and washed three times with 0.1% PBST (0.1% Tween20, pH 7.4, 137 mM NaCl, 10 mM Phosphate, 2.7 mM KCl, SIGMA-ALDRICH Co., USA) for 10 minutes. The target molecules were attached for 1 hour to a 96 well EIA/RIA plate in 1% PBSB (1% BSA, pH 7.4, 137 mM NaCl, 10 mM Phosphate, 2.7 mM KCl, SIGMA-ALDRICH Co., USA), and then washed three times with 0.1% PBST (0.1% Tween 20, pH 7.4, 137 mM NaCl, 10 mM Phosphate, 2.7 mM KCl, SIGMA-ALDRICH Co., USA) for 10 minutes. Then, the anti-DR4, -DR5 and -TNFα Kringle domain variants were bound, and washed three times with 0.1% PBST for 10 minutes. The anti-DR4, -DR5 and -TNFα Kringle domain variants were primarily bound to mouse-derived anti-c-myc 9e10 mAb (Ig Therapy, Korea), and secondarily bound to alkaline phosphatase (AP)-conjugated anti-mouse mAb (Sigma). Each of the Kringle domain variants was reacted with […] (pNPP, Sigma-aldrich Co., USA) and quantified at an absorbance of 405 nm.

cell surface DR4 = molecular target: T3, cell surface DR4 (human, UniProt O00220 24-468); assay: flow cytometry on BJAB(DR5-/-) cells, MFI
T3 construct: whole, on cells; also called DR4 on cell surfaces

[7] = molecular target: T4, human-derived cell death receptor 4, extracellular domain (amino acid residues 1-216), 6xHis tag (human, UniProt O00220 24-239); assay: yeast display, flow cytometry MFI [panel KD506]
T4 construct: extracellular domain; Expressed in E. coli; biotinylated for sorting and flow cytometry; residues 1-216; also called DR4; TRAIL-receptor 1

DcR1 [8] = molecular target: T5, DcR1 (UniProt O14798 26-221, limits assumed); assay: yeast display, flow cytometry MFI [panel KD506]
T5 sequence (looked up): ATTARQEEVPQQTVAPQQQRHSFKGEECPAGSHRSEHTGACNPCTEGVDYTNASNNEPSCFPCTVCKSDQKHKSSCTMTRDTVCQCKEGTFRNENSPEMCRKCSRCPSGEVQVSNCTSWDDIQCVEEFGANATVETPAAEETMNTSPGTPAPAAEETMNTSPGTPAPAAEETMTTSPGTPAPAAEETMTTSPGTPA

DcR2 [9] = molecular target: T6, DcR2 (UniProt Q9UBN6 56-211, limits assumed); assay: yeast display, flow cytometry MFI [panel KD506]
T6 sequence (looked up): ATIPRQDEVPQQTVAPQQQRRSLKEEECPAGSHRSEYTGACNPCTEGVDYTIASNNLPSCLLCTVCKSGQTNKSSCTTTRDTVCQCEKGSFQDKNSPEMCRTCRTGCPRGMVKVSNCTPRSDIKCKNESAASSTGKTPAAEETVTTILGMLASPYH

[10] = molecular target: T2, human-derived cell death receptor 5, …; assay: competitive ELISA on coated DR5, biotinylated KD506 with TRAIL (amount not given), A405
[11] = molecular target: T1, TNFα, extracellular domain (amino acid …); assay: cell-based or functional assay
DcR1 [12] = molecular target: T5, DcR1; assay: yeast display, flow cytometry MFI
DcR2 [13] = molecular target: T6, DcR2; assay: yeast display, flow cytometry MFI
[14] = molecular target: T1, TNFα, extracellular domain (amino acid …); assay: ELISA, coated target, A405
[15] = molecular target: T1, TNFα, extracellular domain (amino acid …); assay: ELISA, coated target, A405; remark: listed apart in the source
Experimental: as §1

[16] = molecular target: T1, TNFα, extracellular domain (amino acid …); assay: affinity ELISA, target coated on the plate
Experimental: as §1
In order to analyze the affinities of the Fc-fused anti-DR4, -DR5 and -TNFα Kringle domains to target molecules, the affinities of the Fc-fused anti-DR4, -DR5 and -TNFα Kringle domains to the target molecules were analyzed using ELISA, as described in Example 8.

T1 sequence (P01375 other isoform, or with tags, fused parts or gaps limits assumed): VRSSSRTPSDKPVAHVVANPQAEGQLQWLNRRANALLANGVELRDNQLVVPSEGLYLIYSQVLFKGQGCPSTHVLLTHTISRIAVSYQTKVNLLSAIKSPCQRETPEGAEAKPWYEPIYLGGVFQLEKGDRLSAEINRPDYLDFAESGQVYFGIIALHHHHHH

B1: anti-TNFα KDT26 homo-dimer (designed binder)
chain: CPRDQGNQYDGFRYGTYRGHRCQHWTRDEPHFHGFGHQHKYTYRHKKNYCRNPDARPRPWCFTHRYQNRNELCHQPRCGGGGSGGGGSGGGGSGGGGSCPRDQGNQYDGFRYGTYRGHRCQHWTRDEPHFHGFGHQHKYTYRHKKNYCRNPDARPRPWCFTHRYQNRNELCHQPRC
fold increase of affinity against the monomer [1]: ~10 fold
affinity value [2]: 8 nM

B2: KD506 (designed binder)
chain: CPEDRGHEYDGDGDKTNRGHGCQYWDQNKPHHHGHRDKDKFKHRIKKNYCRNPDYETGPWCFTNRYRNKNELCHEPRC
notes: Soluble monomer from Pichia pastoris; also called anti-DR5 Kringle domain variant KD506; KR506; not shown: C-terminal myc tag-6xHis tag of pPICZaA
EC50 (a concentration of protein causing a 50% cell death), HL60, MTT assay (cell surface DR5): 210 nM
EC50 (a concentration of protein causing a 50% cell death), Jurkat, MTT assay (cell surface DR5): 200 nM
EC50 (read off the curve) [3]: ~300 nM
EC50 (read off the curve) [4]: ~300 nM
EC50 (read off the curve) [5]: ~100 nM
EC50 (read off the curve) [6]: ~300 nM
binding result (cell surface DR4): no binding
binding result [7]: no binding
binding result (DcR1 [8]): no binding
binding result (DcR2 [9]): no binding
EC50 (read off the curve) [10]: ~100 nM

B3: KDT26 (designed binder)
chain: CPRDQGNQYDGFRYGTYRGHRCQHWTRDEPHFHGFGHQHKYTYRHKKNYCRNPDARPRPWCFTHRYQNRNELCHQPRC
notes: Soluble monomer from Pichia pastoris; also called KRT26; anti-TNFα Kringle domain variant KDT26; not shown: C-terminal myc tag-6xHis tag of pPICZaA
IC50 (50% inhibiting concentration) of TNFα-mediated cell death, WEHI 164, MTT assay [11]: 780 nM
binding result (DcR1 [12]): no binding
binding result (DcR2 [13]): no binding
EC50 (read off the curve) [14]: ~80 nM
EC50 (read off the curve) [15]: ~80 nM

B4: KDT26-Fc (Fc fusion)
chain: CPRDQGNQYDGFRYGTYRGHRCQHWTRDEPHFHGFGHQHKYTYRHKKNYCRNPDARPRPWCFTHRYQNRNELCHQPRC
notes: Disulfide-linked dimer from Pichia pastoris; also called KRT26-Fc; Fc-fused anti-TNFα Kringle domain KDT26; not shown: Fc domain region from a hinge of human immunoglobulin G1
IC50 (50% inhibiting concentration) of TNFα-mediated cell death, WEHI 164, MTT assay [11]: 5.2 nM
affinity [16]: 3.8 nM
